B1: Twister Ribozyme (parent)
chain: AACACUGCCAAUGCCGGUCCCAAGCCCGGAUAAAAGUGGAGGGGGCGG

Variants of: B1
Experiment: self-cleavage, relative activity (ratio to wild type); higher = more cleavage; co-transcriptional

Variant | self-cleavage
AACACUGCCAACGCCGAUCCCAAGCCCGGAUAAAAGUGGAGGGGGCGG [U12C G17A] | 0.532
AACACUGCCAACGCCGGUCCCAACCCCGGAUAAAAGUGGAGGGGGCGG [U12C G24C] | 0.0606
AACACUGCCAACGCCGGUCCCAAUCCCGGAUAAAAGUGGAGGGGGCGG [U12C G24U] | 0.168
AACACUGCCAACGCCGGUCCCAAGCCCAGAUAAAAGUGGAGGGGGCGG [U12C G28A] | 0.829
AACACUGCCAACGCCGGUCCCAAGCCCCGAUAAAAGUGGAGGGGGCGG [U12C G28C] | 0.814
AACACUGCCAACGCCGGUCCCAAGCCCGAAUAAAAGUGGAGGGGGCGG [U12C G29A] | 0.988
AACACUGCCAACGCCGGUCCCAAGCCCGGAUAAAACUGGAGGGGGCGG [U12C G36C] | 0.559
AACACUGCCAACGCCGGUCCCAAGCCCGGAUAAAAUUGGAGGGGGCGG [U12C G36U] | 0.543
AACACUGCCAACGCCGGUCCCAAGCCCGGAUAAAAGUAGAGGGGGCGG [U12C G38A] | 0.929
AACACUGCCAACGCCGGUCCCAAGCCCGGAUAAAAGUCGAGGGGGCGG [U12C G38C] | 0.951
AACACUGCCAACGCCGGUCCCAAGCCCGGAUAAAAGUGAAGGGGGCGG [U12C G39A] | 0.609
AACACUGCCAACGCCGGUCCCAAGCCCGGAUAAAAGUGCAGGGGGCGG [U12C G39C] | 0.127
AACACUGCCAACGCCGGUCCCAAGCCCGGAUAAAAGUGUAGGGGGCGG [U12C G39U] | 0.222
AACACUGCCAACGCCGGUCCCAAGCCCGGAUAAAAGUGGAUGGGGCGG [U12C G41U] | 0.614
AACACUGCCAACGCCGGUCCCAAGCCCGGAUAAAAGUGGAGAGGGCGG [U12C G42A] | 0.42
AACACUGCCAACGCCGGUCCCAAGCCCGGAUAAAAGUGGAGCGGGCGG [U12C G42C] | 0.486
AACACUGCCAACGCCGGUCCCAAGCCCGGAUAAAAGUGGAGUGGGCGG [U12C G42U] | 0.331
AACACUGCCAACGCCGGUCCCAAGCCCGGAUAAAAGUGGAGGAGGCGG [U12C G43A] | 0.243
AACACUGCCAACGCCGGUCCCAAGCCCGGAUAAAAGUGGAGGUGGCGG [U12C G43U] | 0.485
AACACUGCCAACGCCGGUCCCAAGCCCGGAUAAAAGUGGAGGGAGCGG [U12C G44A] | 0.852
AACACUGCCAACGCCGGUCCCAAGCCCGGAUAAAAGUGGAGGGUGCGG [U12C G44U] | 0.902
AACACUGCCAACGCCGGUCCCAAGCCCGGAUAAAAGUGGAGGGGCCGG [U12C G45C] | 0.584
AACACUGCCAACGCCGGUCCCAAGCCCGGAUAAAAGUGGAGGGGUCGG [U12C G45U] | 0.973
AACACUGCCAACGCCGGUCCCAAGCCCGGAUAAAAGUGGAGGGGGCCG [U12C G47C] | 0.497
AACACUGCCAACGCCGGUCCCAAGCCCGGAUAAAAGUGGAGGGGGCUG [U12C G47U] | 0.944
AACACUGCCAACGCCGGUCCCAAGCCCGGAUAAAAGUGGAGGGGGCGA [U12C G48A] | 0.952
AACACUGCCAACGCCGGUCCCAAGCCCGGAUAAAAGUGGAGGGGGCGC [U12C G48C] | 1.18

Variant | self-cleavage
AACACUGCCAACGCCGGUCCCAAGCCCGGAUAAAAGUGGAGGGGGCGU [U12C G48U] | 1.03
AACACUGCCAACGCCGGACCCAAGCCCGGAUAAAAGUGGAGGGGGCGG [U12C U18A] | 0.474
AACACUGCCAACGCCGGCCCCAAGCCCGGAUAAAAGUGGAGGGGGCGG [U12C U18C] | 0.564
AACACUGCCAACGCCGGUCCCAAGCCCGGACAAAAGUGGAGGGGGCGG [U12C U31C] | 0.938
AACACUGCCAACGCCGGUCCCAAGCCCGGAUAAAAGAGGAGGGGGCGG [U12C U37A] | 0.747
AACACUGCCAACGCCGGUCCCAAGCCCGGAUAAAAGGGGAGGGGGCGG [U12C U37G] | 0.72
AACACUGCCAAGGCCGGUCCCAAGCCCGGAUAAAAGUGGAGGGGGCGG [U12G] | 0.946
AACACUGCCAAGGCCGGUCCCGAGCCCGGAUAAAAGUGGAGGGGGCGG [U12G A22G] | 0.316
AACACUGCCAAGGCCGGUCCCAGGCCCGGAUAAAAGUGGAGGGGGCGG [U12G A23G] | 0.502
AACACUGCCAAGGCCGGUCCCAAGCCCGGGUAAAAGUGGAGGGGGCGG [U12G A30G] | 0.783
AACACUGCCAAGGCCGGUCCCAAGCCCGGUUAAAAGUGGAGGGGGCGG [U12G A30U] | 0.812
AACACUGCCAAGGCCGGUCCCAAGCCCGGAUAGAAGUGGAGGGGGCGG [U12G A33G] | 0.809
AACACUGCCAAGGCCGGUCCCAAGCCCGGAUAUAAGUGGAGGGGGCGG [U12G A33U] | 0.868
AACACUGCCAAGGCCGGUCCCAAGCCCGGAUAACAGUGGAGGGGGCGG [U12G A34C] | 0.287
AACACUGCCAAGGCCGGUCCCAAGCCCGGAUAAAGGUGGAGGGGGCGG [U12G A35G] | 0.815
AACACUGCCAAGGCCGGUCCCAAGCCCGGAUAAAAGUGGGGGGGGCGG [U12G A40G] | 0.163
AACACUGCCAAGGACGGUCCCAAGCCCGGAUAAAAGUGGAGGGGGCGG [U12G C14A] | 0.726
AACACUGCCAAGGGCGGUCCCAAGCCCGGAUAAAAGUGGAGGGGGCGG [U12G C14G] | 0.124
AACACUGCCAAGGUCGGUCCCAAGCCCGGAUAAAAGUGGAGGGGGCGG [U12G C14U] | 0.756
AACACUGCCAAGGCAGGUCCCAAGCCCGGAUAAAAGUGGAGGGGGCGG [U12G C15A] | 0.614
AACACUGCCAAGGCGGGUCCCAAGCCCGGAUAAAAGUGGAGGGGGCGG [U12G C15G] | 0.115
AACACUGCCAAGGCCGGUACCAAGCCCGGAUAAAAGUGGAGGGGGCGG [U12G C19A] | 0.601
AACACUGCCAAGGCCGGUGCCAAGCCCGGAUAAAAGUGGAGGGGGCGG [U12G C19G] | 0.686
AACACUGCCAAGGCCGGUCACAAGCCCGGAUAAAAGUGGAGGGGGCGG [U12G C20A] | 0.314
AACACUGCCAAGGCCGGUCCAAAGCCCGGAUAAAAGUGGAGGGGGCGG [U12G C21A] | 0.0849
AACACUGCCAAGGCCGGUCCGAAGCCCGGAUAAAAGUGGAGGGGGCGG [U12G C21G] | 0.0698
AACACUGCCAAGGCCGGUCCUAAGCCCGGAUAAAAGUGGAGGGGGCGG [U12G C21U] | 0.0878
